Assays:
[1] = target: T1, IL-26 (human, UniProt Q9NPH9); assay: ELISA: plate coated with 1 µg/ml antigen, IgG added at 1 µg/ml, HRP goat anti-human IgG, A450
T1 construct: also called human IL-26
T1 sequence (cytokine, looked up): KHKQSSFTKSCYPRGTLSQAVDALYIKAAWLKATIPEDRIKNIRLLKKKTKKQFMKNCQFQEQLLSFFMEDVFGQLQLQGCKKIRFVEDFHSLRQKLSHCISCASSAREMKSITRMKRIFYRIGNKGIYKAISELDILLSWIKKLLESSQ
Protocol: (§1) Cross species reactivity of germlined and non-germlined optimized antibodies were determined as follows: ELISA plates (Costar, Cat. #3590) were coated overnight with 1 μg/ml of rat, mouse, or human IL-22 or human IL-26 in PBS buffer. Plates were washed with PBST buffer (0.05% Tween20 in PBS) 3 times, then blocked with 1% BSA (Sigma A8918)/PBST for 1 hr at RT. Antibodies were added at 1 μg/ml, incubated 1 hr at 25° C. […] The plates were incubated for 1 hour at 25° C., then washed with PBST, and developed with TMB (KPL, Cat. #50-76-04). Reaction was stopped with 0.18 M H₂SO₄ Plates were read at OD 450 nm.

[2] = target: T2, murine IL-22 (murine, UniProt Q9JJY9 34-179); assay: as above
T2 construct: also called mouse IL-22; mIL-22
T2 sequence: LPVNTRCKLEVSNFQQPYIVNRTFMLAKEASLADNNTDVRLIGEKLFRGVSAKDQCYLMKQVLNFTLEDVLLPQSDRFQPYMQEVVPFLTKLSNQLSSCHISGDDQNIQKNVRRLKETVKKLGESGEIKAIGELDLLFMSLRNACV
Protocol: as §1

[3] = target: T3, human IL-22 (human, UniProt Q9GZX6 34-179); assay: cell-based or functional assay
T3 sequence: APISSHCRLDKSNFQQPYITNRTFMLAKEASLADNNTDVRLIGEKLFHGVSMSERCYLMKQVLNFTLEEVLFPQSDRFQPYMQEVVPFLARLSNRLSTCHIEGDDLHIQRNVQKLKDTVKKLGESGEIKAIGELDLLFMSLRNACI

[4] = target: T4, BSA (bovine, UniProt P02769); assay: ELISA: plate coated with antigen, IgG added at 1 µg/ml, HRP goat anti-human IgG, A450
T4 construct: also called bovine serum albumin
T4 sequence (P02769 25-607 limits assumed): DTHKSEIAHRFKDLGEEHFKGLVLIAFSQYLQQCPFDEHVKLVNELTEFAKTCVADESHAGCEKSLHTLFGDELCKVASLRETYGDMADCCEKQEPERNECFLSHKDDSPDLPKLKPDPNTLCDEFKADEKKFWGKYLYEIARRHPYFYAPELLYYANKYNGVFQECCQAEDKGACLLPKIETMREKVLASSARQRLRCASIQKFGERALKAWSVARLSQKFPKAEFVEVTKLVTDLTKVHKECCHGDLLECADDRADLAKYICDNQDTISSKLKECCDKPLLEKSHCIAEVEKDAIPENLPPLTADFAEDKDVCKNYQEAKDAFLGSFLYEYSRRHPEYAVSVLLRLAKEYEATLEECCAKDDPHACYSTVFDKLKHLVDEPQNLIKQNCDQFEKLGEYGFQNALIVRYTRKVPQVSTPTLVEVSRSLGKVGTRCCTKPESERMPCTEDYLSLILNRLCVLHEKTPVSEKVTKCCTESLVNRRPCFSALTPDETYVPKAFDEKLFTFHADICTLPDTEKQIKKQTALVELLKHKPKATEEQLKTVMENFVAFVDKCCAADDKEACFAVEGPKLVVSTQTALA

binding result [1]: no binding (tested: 1 µg/ml)
binding result [2]: no binding (tested: 1 µg/ml)
IC50 of IgG (pM) in BaF3-IL-22 proliferation assay [3]: 197 pM
binding result [4]: no binding (tested: 1 µg/ml)
B1: 097D09 IgG (non-germlined) (antibody, V domains shown)
VH: EVQLVESGGGLVTPGGSLRLSCAASGFTFSDYYMSWVRQAPGRGLEWVSAISGSGGSTYYADSVKGRITISRDNAKNSLYLQMSSLRSEDTAVYYCARGLWVWDPLDYWGRGTLVTVSS
VL: DIQMTQSPSTLSASIGDRVTITCRASEGIYHWLAWYQQKPGKAPKLLIYKASSLASGAPSRFSGSGFGTDFTLTISSLQPDDFATYYCQQYSEFAWTFGGGTKLEIKR
notes: IgG
